This test addresses T1, GFP-rev-p53 biosensor.
T1 construct: also called rev-p53-GFP; NLS-p53-GFP construct
In words: co-localization of fluorescent biosensor components co-expressed in U2OS cells.

B1: TagGFP-NES/NLS-HDM2 biosensor (other)
chain: MVSKGEELIKENMHMKLYMEGTVNNHHFKCTSEGEGKPYEGTQTMRIKVVEGGPLPFAFDILATSFMYGSRTFINHTQGIPDFFKQSFPEGFTWERVTTYEDGGVLTATQDTSLQDGCLIYNVKIRGVNFPSNGPVMQKKTLGWEANTEMLYPADGGLEGRSDMALKLVGGGHLICNFKTTYRSKKPAKNLKMPGVYYVDHRLERIKEADKETYVEQHEVAVARYCDLPSKLGHKLNSGLRSRAQASNSPQTPLHTSRVLKEDKERWEDVKEEMTSALATMCVDYEQIKIKKIEDASNPLLLKRRKKLEMCNTNMSVPTDGAVTTSQIPASEQETLVRPKPLLLKLLKSVGAQKDTYTMKEVLFYLGQYIMTKRLYDEKQQHIVYCSNDLLGDLFGVPSFSVKEHRKIYTMIYRNLVVVNQQESSDS
notes: also called NES/NLS-HDM2-RFP; shuttling component
Take B1: the binding result is reported as “binds”.

Source of the values: patent publication US20100112602A1 (published 2010).
